Among the data in publication PMC13038408 are Kd values, retold here.

The target in one assay is RSVF-multi-4 K29L. In words: SPR.
Assay [1] has as its target prefusion RSVF sc9-10 DS-Cav1-A149C;Y458C;S46G;E92D;S215P;K465Q thermostabilized variant (DS2) (respiratory syncytial virus) (UniProt P03420). In words: SPR. On the technique in general: SPR reads the build-up and loss of mass on a sensor chip optically.

Sequence of motavizumab Fab (VH): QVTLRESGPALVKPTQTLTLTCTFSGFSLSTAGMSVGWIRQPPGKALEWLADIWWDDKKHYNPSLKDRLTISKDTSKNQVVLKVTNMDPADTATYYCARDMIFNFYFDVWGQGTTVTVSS
Sequence of motavizumab Fab (VL): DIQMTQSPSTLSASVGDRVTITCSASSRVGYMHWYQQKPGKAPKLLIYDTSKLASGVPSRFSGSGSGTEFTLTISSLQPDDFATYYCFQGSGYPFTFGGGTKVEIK

As a reminder, the Kd is a measure of binding affinity in units of concentration. A low value points to higher affinity. For the substance RSV90 Fab, the Kd was > 1000 nM with RSVF-multi-4 K29L and 0.9 nM in assay [1].
Consider motavizumab Fab, for which, in assay [1], the equilibrium dissociation constant (Kd) is 0.015 nM.
